We go through seven molecules from US20230105029A1 (CHIA TAI TIANQING PHARMACEUTICAL GROUP, published 2023).

Experiment [1] concerns the target T1, recombinant human IL4Rα-his protein (in house made) (human, UniProt P24394 26-232, limits assumed).
T1 construct: also called Human IL4Ra-his
The experiment can be described thus: SPR (Biacore), antibody captured, IL4Rα-his flowed.

Experiment [2] concerns the target T1, recombinant human IL4Rα-his protein (in …). The experiment can be described thus: competitive ELISA: antibody mixed with biotin human IL4Rα-his, competitor plate-coated Benchmark. Here is the method: The ability of the anti-IL4Rα antibodies of the disclosure to block benchmark-human IL4Rα binding was measured in a competitive ELISA assay. Briefly, the benchmark was coated on 96-well micro plates at 2 μg/mL in PBS, 100 μl per well, and incubated overnight at 4° C. The next day, plates were washed with wash buffer (PBS+0.05% w/v Tween-20, PBST), and blocked with 5% w/v non-fatty milk in PBST for 2 hours at 37° C. tiring plate blocking, the anti-IL4Rα antibodies of the disclosure or controls were diluted with biotin labeled human IL4Rα-his proteins (prepared in-house with SEQ ID NO: 57, 0.55 nM in 2.5% w/v non-fatty milk in PBST), starting at 100 nM with a 4-fold serial dilution, and incubated at 25° C. for 40 minutes. After plate washing, the antibody/IL4Rα-his mixtures were added to benchmark coated plates, 100 μl per well. After incubation at 37° C. for 40 minutes, plates were washed using wash buffer. Then the plates were added and incubated with 100 μl/well streptavidin conjugated HRP for 40 minutes at 37° C. to detect biotin-labeled human IL4Rα-his bound to plates. Plates were washed again using wash buffer. Finally, TMB was added and the reaction was stopped using 1M H₂SO₄, and the absorbance was read at 450 nm. Data was analyzed using Graphpad Prism software and IC₅₀ values were reported.
On the technique in general: An ELISA detects its analyte on a solid surface through an enzyme-linked reagent.

Experiment [3] concerns the target T2, human IL4Rα expressed on 293F-IL4Rα cells (human, UniProt P24394 26-825).
T2 construct: whole, on cells; also called cell surface human IL4Rα
The experiment in a line: flow cytometry, blocks biotin-IL4 binding to 293F-IL4Rα cells. Here is the method:
Then, 1×10⁵ cells per well in 96 well-plates were incubated in 100 μL of the anti-IL4Rα antibodies or controls of various concentrations (starting at 80 nM with a 4-fold serial dilution) in FACS buffer for 40 minutes on ice. The plates were washed twice with FACS buffer, and added and incubated for 40 minutes at 4° C. in dark with 100 μl/well 1.67 nM biotin-labeled human IL4 protein (Sino biological inc., Cat #11846-HNAE). The plates were washed twice with FACS buffer, and then added and incubated for 40 minutes at 4° C. in dark with 100 μl/well R-Phycoerythrin Streptavidin (1:500 dilution in FACS buffer, Jackson Immunoresearch, Cat #016-110-084). Cells were washed twice and resuspended in FACS buffer. Fluorescence was measured using a Becton Dickinson FACS Canto II-HTS equipment. Data was analyzed using Graphpad Prism software and IC₅₀ values were reported.
For orientation: A flow cytometer gives signals particle by particle.

The target of experiment [4] is T1, recombinant human IL4Rα-his protein (in …). The experiment in a line: competitive ELISA: coated human IL4Rα-his, blocked ligand biotin human IL4. Here is the method:
The activity of the anti-IL4Rα antibodies of the disclosure to block IL4-IL4Rα interaction was measured in a competitive ELISA assay. Briefly, 100 μl human IL4Rα-his proteins (prepared in-house with SEQ ID NO: 57) were coated on 96-well micro plates at 2 μg/mL in PBS overnight at 4° C. The next day, plates were washed with wash buffer (PBS+0.05% w/v Tween-20, PBST), and blocked with 5% w/v non-fatty milk in PBST for 2 hours at 37° C. Plates were then washed again using wash buffer.
Serially diluted anti-IL4Rα antibodies or the controls (starting at 80 nM with a 4-fold serial dilution) in 2.5% w/v non-fatty milk in PBST, 100 μl per well, were added to the IL4Rα bound plates, and incubated with the human IL4Rα-his proteins at 37° C. for 40 minutes. Plates were washed 4 times using wash buffer, and then added and incubated for 40 minutes at 37° C. with 100 μl/well of 0.56 nM biotin-labeled human IL4 protein (Sino biological inc., Cat #11846-HNAE). Plates were washed again using wash buffer. Thereafter, the plates were added with 100 μl/well of streptavidin conjugated HRP (1:10000 dilution in PBST buffer, Jackson Immunoresearch, Cat #016-030-084) and incubated for 40 minutes at 37° C. Plates were washed again using wash buffer. Finally, TMB was added and the reaction was stopped using 1M H₂SO₄, and the absorbance was read at 450 nm. Data was analyzed using Graphpad Prism software and IC₅₀ values were reported.

Experiment [5] has the same target. The experiment can be described thus: capture ELISA: antibody captured on anti-IgG Fc plate, biotin human IL4Rα-his detected. How it is done: Plates were washed once with wash buffer (PBS+0.05% w/v Tween-20, PBST) and then blocked with 200 μl/well blocking buffer (5% w/v non-fatty milk in PBST) for 2 hours at 37° C. Plates were washed again and incubated with 100 μl/well serially diluted anti-IL4Rα antibodies of the disclosure, the benchmark or negative control hIgG (human immunoglobulin (pH4) for intravenous injection, Hualan Biological Engineering Inc.) (5-fold dilution in 2.5% w/v non-fatty milk in PBST, starting at 66.7 nM) for 40 minutes at 37° C., and then washed 4 times again. Plates containing captured anti-IL4Rα antibodies were incubated with biotin-labeled human IL4Rα-his protein (in house made with SEQ ID NO: 57, 0.14 nM in 2.5% w/v non-fatty milk in PBST, 100 μl/well) for 40 minutes at 37° C., washed 4 times, and incubated with streptavidin conjugated HRP (1:10000 dilution in PBST, Jackson Immuno Research, Cat #016-030-084, 100 μl/well) for 40 minutes at 37° C. After a final wash, plates were incubated with 100 μl/well ELISA substrate TMB (Innoreagents, Cat #TMB-S-002). The reaction was stopped in 10 minutes at 25° C. with 50 μl/well 1M H₂SO₄, and the absorbance was read at 450 nm. Data was analyzed using Graphpad Prism software and EC₅₀ values were reported.
For the capture ELISA, 96-well micro plates were coated with 2 μg/ml goat anti-human IgG (AffiniPure Goat Anti-Human IgG, Fcγ fragment specific, Jackson Immunoresearch, Cat #109-005-098) instead of goat anti-mouse IgG Fey fragment, 100 μl/well.

B1: mouse antibody B8G11F2B7G5E8 (antibody, V domains shown)
VH: EVQLQQSGADLVRPGASVKLSCTASGFNIKDTYMHWVKQRPEQGLEWVGRIDPTNGYTIYASKFQGKATITADTSSNTAYMQLSSLTSGDTAVYHCVSRRPWFAYWGQGTLVTVSA
VL: DILMTQTPLSLPVSLGAQASISCRSSQSIVHSNGNTYLEWYLQKPGQSPKLLIYKVTNRFSGVPDRFSGSGSGTDFTLKISRVEAEDLGIYYCFQGSHVPYTFGGGTKLEIK
notes: Mouse hybridoma mAb; also called Mouse B8G11F2B7G5E8; mAb B8G11F2B7G5E8
As to B1, in experiment [1], the Kd – broadly, the constant that tells how readily two partners part at equilibrium – came out at 2.98 nM. For the same molecule, the IC50 – broadly, the concentration at which inhibition is half-maximal – in experiment [2] came to 0.0171 nM; in experiment [3], 0.8 nM; in experiment [4] it was 0.81 nM. The EC50 – broadly, the concentration at which the effect is half-maximal – in experiment [5] was determined as 0.143 nM.

B2: chimeric antibody B8G11F2B7G5E8 (antibody, human IgG4 S228P, kappa, V domains shown)
VH: EVQLQQSGADLVRPGASVKLSCTASGFNIKDTYMHWVKQRPEQGLEWVGRIDPTNGYTIYASKFQGKATITADTSSNTAYMQLSSLTSGDTAVYHCVSRRPWFAYWGQGTLVTVSA
VL: DILMTQTPLSLPVSLGAQASISCRSSQSIVHSNGNTYLEWYLQKPGQSPKLLIYKVTNRFSGVPDRFSGSGSGTDFTLKISRVEAEDLGIYYCFQGSHVPYTFGGGTKLEIKR
notes: Mouse variable domains on human IgG4/kappa; also called Chimeric B8G11F2B7G5E8; chB8G11F2B7G5E8
As for B2, the Kd in experiment [1] amounted to 2.99 nM. Also, the EC50 in experiment [5] was determined as 0.275 nM.

B3: mouse antibody C2C1A1A1 (antibody, V domains shown)
VH: EVQLVESGGGLVQPGGSLKLSCAASGFTFSTYGMSWVRQTPDKRLELVATINSNGGSTSYPDSVKGRFTISRDNAKNTLYLQMSSLKSEDTAMFYCARFFRFRNAMDYWGQGTSVTVSS
VL: DIQMTQSPASLSASVGETVTITCRTSENIYSYLAWYQQKQGKSPQFLVYNAKTLAEGVPSRFSGSGSGTQFSLNINSLQSEDFGSYYCQHYYGPPTWTFGGGTKLEIK
notes: Mouse hybridoma mAb; also called Mouse C2C1A1A1
Turning to B3, the Kd in experiment [1] was determined as 0.119 nM. Besides, the IC50 in experiment [2] is 0.0383 nM; in experiment [3] it was 0.44 nM; in experiment [4], 0.812 nM. For the same molecule, the EC50 in experiment [5] was 0.0262 nM.

B4: chimeric antibody C2C1A1A1 (antibody, human IgG4 S228P, kappa, V domains shown)
VH: EVQLVESGGGLVQPGGSLKLSCAASGFTFSTYGMSWVRQTPDKRLELVATINSNGGSTSYPDSVKGRFTISRDNAKNTLYLQMSSLKSEDTAMFYCARFFRFRNAMDYWGQGTSVTVSS
VL: DIQMTQSPASLSASVGETVTITCRTSENIYSYLAWYQQKQGKSPQFLVYNAKTLAEGVPSRFSGSGSGTQFSLNINSLQSEDFGSYYCQHYYGPPTWTFGGGTKLEIKR
notes: Mouse variable domains on human IgG4/kappa; also called Chimeric C2C1A1A1; chC2C1A1A1
For B4, in experiment [1], the Kd was 0.522 nM. For the same molecule, the EC50 in experiment [5] was determined as 0.0549 nM.

B5: mouse antibody C2B2F7B7 (antibody, V domains shown)
VH: EVQLVESGGGLVQPGGSLKLSCAASGFTFSTYGMSWVRQTPDKRLELVATINSNGGSTNYPDSVKGRFTISRDNAKNTLYLQMSSLKSEDTAMYYCARFFRIRNAMDYWGQGTSVTVSS
VL: DIQMTQSPASLSASVGETVTITCRASENIYSYLAWYQQKQGKSPQFLVYNAKTLAEGVPSRFSGSGSGTQFSLKINSLQPEDFGSYYCQHYYGTPTWTFGGGTKLEIK
notes: Mouse hybridoma mAb
In the case of B5, the figures for the IC50 in experiment [2], in experiment [3] and in experiment [4] were 0.716 nM, 0.4 nM and 0.726 nM, respectively.

B6: mouse antibody B1D2F7D3B5 (antibody, V domains shown)
VH: EVKLVESGGGLVKPGGSLKLSCAASGFTFSSYAMSWVRQTPEKRLEWVASISSGDSTYYLDSVKGRFTISRDNAMNILYLQMSSLRSEDTAVYYCERSGGSAPYWGQGTLVSVSA
VL: QIVLTQSPAIMSASPGEMVTISCSASSSVSYMYWYQQKPGSSPKPWIYRTSNLASGVPARFSGSGSGTSYSLTISSMEAEDAATYYCQQYHSFPLTFGAGTKLELK
notes: Mouse hybridoma mAb
Turning to B6, the values for the concentration for half-maximal inhibition (IC50) in experiment [2], in experiment [3] and in experiment [4] were 0.024 nM, 0.78 nM and 1.8 nM, respectively.

B7: mouse antibody B9D1D11F8D8 (antibody, V domains shown)
VH: EVKLVESGGGLVKPGGSLKLSCAASGFTFSSYAMSWVRQTPEKRLEWVASISSGDSTYYLDSVKGRFTISRDNARNILYLQVSSLRSEDTAMYYCERSGGSAPYWGQGTLVTVSA
VL: QIVLTQSPAIMSASPGDMVTISCSASSSVNYMYWYQQKPGSSPKPWIYRTSNLASGVPARFSGSGSGTSYSLTISSMEAEDAATYYCQQYHSFPLTFGAGTKLELK
notes: Mouse hybridoma mAb
Consider B7, for which the results for the IC50 in experiment [2], in experiment [3] and in experiment [4] were 0.0209 nM, 0.75 nM and 2.88 nM, respectively.
